The chains are these.
B1: Ras-related protein Rab-11A (Homo sapiens), P62491 (parent)
chain: MGTRDDEYDYLFKVVLIGDSGVGKSNLLSRFTRNEFNLESKSTIGVEFATRSIQVDGKTIKAQIWDTAGQERYRAITSAYYRGAVGALLVYDIAKHLTYENVERWLKELRDHADSNIVIMLVGNKSDLRHLRAVPTDEARAFAEKNGLSFIETSALDSTNVEAAFQTILTEIYRIVSQKQMSDRRENDMSPSNNVVPIHVPPTTENKPKVQCCQNI
partner: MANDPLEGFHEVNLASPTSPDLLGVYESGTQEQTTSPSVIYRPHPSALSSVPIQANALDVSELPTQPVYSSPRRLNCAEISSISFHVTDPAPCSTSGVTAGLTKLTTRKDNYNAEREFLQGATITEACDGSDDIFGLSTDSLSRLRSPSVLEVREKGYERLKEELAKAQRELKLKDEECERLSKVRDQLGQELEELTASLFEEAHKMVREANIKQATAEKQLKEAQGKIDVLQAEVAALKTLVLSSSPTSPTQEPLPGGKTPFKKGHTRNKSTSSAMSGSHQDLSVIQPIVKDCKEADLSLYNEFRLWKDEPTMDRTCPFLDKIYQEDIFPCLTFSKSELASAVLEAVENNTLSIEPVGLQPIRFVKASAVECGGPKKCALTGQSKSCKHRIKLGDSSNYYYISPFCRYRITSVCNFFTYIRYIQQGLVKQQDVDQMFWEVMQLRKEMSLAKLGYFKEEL

This note sets out measurements from IntAct's records for PubMed 20308558.

This experiment covers variants of B1. Conditions: with RAB3IP.
In the case of Q70L, the “effect of a mutation on the interaction” value is reported as “increasing interaction”.
In the case of S25N, the “effect of a mutation on the interaction” value is given as “decreasing interaction”.
